These results are taken from patent publication US20200339702A1 (ULTRAHUMAN THIRTEEN, published 2020).

The Kd is the equilibrium constant for the complex coming apart. The koff is the first-order rate constant of dissociation. In general, kon refers to the second-order rate constant of association.

The target of test [1] is T1, human ERBB3 His tagged, monomeric (human, UniProt P21860 20-643, biotinylated in the Alphascreen assays (sites not given)).
T1 construct: Used unbiotinylated as Biacore analyte and biotinylated in Alphascreen; treated as one molecule; also called human ERBB3-His (Acrobiosystems); biotinylated monomeric human ERBB3
The experiment in a line: SPR (Biacore), captured IgG, monomeric ERBB3-His analyte. As to the method: (§1) Affinity (KD) of purified IgGs was determined via SPR with antigen in-solution on a Biacore® 3000 (GE). A mouse anti-human antibody (CH1 specific) was immobilized on a CM5 Sensor Chip to a level of 2000 RU in acetate buffer at pH 4.5 using amine coupling following the Wizard instructions for two channels. One channel was used for background signal correction. The standard running buffer HBS-EP pH 7.4 was used. Regeneration was performed with a single injection of 10 μl of 10 mM Glycine at pH 1.5 at […]. IgG samples were injected for 2 minutes at 50 nM at 30 μl/min followed by an off-rate of 60 seconds. The monomeric antigen (human ERBB3 His tagged or rhesus monkey ERBB3 His tag) was injected in two fold serial dilutions from 3 nM down to 0.2 nM, for 2 minutes at 30 μl/min followed by an off-rate of 300 seconds. The obtained sensorgrams were analysed using the Biacore® 3000 evaluation (BlAevaluation) software. The KD was calculated by simultaneous fitting of the association and dissociation phases to a 1:1 Langmuir binding model.
(§2) Biacore® analyses of binding affinity were performed for all IgGs to solution-phase, monomeric human and rhesus ERBB3 proteins.
(Surface plasmon resonance follows binding to a sensor surface in real time, without labels.)

Test [2] addresses T2, rhesus monkey ERBB3 His tag, monomeric (rhesus monkey (Macaca mulatta), UniProt P21860 20-643 (human entry), limits assumed).
T2 chain: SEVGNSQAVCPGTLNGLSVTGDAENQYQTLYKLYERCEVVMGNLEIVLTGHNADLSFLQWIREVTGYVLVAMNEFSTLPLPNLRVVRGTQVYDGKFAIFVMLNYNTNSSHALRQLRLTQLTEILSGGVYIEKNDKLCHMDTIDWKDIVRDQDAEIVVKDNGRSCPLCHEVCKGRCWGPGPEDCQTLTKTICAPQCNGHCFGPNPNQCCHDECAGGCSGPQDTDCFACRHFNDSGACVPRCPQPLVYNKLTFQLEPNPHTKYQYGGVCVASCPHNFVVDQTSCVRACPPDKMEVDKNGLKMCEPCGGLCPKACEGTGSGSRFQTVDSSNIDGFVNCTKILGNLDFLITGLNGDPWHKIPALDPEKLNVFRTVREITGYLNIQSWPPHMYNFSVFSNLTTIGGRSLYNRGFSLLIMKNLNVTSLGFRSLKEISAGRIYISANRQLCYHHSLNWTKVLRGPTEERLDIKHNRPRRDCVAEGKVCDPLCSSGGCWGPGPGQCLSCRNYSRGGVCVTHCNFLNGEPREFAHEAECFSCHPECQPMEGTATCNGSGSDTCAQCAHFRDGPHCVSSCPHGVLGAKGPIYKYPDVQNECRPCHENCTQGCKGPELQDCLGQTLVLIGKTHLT
The test is described as above. As to the method: as §1, §2

Test [3] addresses T3, rhesus ERBB3 on transiently transfected HEK-293 cells (rhesus monkey (Macaca mulatta), UniProt P21860 20-1342 (human entry)).
T3 construct: also called rhesus ERBB3+ HEK-293 cells
T3 chain: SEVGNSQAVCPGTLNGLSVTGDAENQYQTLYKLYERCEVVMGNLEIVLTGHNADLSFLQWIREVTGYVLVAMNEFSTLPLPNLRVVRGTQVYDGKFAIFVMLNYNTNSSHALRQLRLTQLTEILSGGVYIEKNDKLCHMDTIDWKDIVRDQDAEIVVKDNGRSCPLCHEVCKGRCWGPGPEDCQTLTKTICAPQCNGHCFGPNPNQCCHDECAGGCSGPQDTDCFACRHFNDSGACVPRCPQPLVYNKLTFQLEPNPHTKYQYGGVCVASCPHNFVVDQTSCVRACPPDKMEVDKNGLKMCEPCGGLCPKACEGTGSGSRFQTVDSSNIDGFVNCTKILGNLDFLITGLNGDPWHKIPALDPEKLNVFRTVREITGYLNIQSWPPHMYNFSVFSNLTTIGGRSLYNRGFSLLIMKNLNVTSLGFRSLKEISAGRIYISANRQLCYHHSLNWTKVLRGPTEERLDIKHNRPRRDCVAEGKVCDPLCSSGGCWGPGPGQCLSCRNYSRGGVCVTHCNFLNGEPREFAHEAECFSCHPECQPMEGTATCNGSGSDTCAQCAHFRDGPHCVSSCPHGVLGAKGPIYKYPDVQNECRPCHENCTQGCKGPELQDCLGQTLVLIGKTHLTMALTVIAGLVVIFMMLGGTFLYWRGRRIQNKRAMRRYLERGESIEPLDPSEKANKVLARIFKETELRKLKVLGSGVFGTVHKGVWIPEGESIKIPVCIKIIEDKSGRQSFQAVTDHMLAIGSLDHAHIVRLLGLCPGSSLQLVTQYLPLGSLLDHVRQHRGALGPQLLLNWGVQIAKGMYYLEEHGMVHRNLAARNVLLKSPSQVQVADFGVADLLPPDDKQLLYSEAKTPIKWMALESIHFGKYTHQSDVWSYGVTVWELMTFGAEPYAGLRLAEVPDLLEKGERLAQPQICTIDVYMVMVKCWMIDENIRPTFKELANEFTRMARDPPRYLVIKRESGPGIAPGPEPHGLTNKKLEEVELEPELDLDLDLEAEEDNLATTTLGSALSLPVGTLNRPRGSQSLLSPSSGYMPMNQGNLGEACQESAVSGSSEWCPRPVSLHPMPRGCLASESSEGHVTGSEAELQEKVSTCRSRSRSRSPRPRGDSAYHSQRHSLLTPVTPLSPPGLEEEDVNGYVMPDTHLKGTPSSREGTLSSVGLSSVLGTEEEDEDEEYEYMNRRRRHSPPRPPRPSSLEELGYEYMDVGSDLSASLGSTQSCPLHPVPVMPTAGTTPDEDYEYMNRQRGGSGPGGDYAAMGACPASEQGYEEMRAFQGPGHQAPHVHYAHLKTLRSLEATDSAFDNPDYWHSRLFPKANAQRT
Put plainly: flow cytometry, rhesus ERBB3-transfected HEK-293. The protocol:
(§3) Purified IgGs were tested in FACs for binding to human and rhesus monkey ERBB3 expressed on transiently transfected HEK-293 cells and HEK-293 wild-type cells. The IgG samples were titrated in three-fold serial dilutions starting at 500 nM to 0.008 nM. Binding of IgGs was detected with a mouse anti-human IgG conjugated to FITC. Results were analyzed by examining the Mean Fluorescence Intensity (MFI) of 10000 cells per sample in the BL-1 channel detector of a flow cytometer (Attune™ NxT Acoustic Focusing Cytometer, Invitrogen/ThermoFisher Scientific).
(§4) Antibodies to ERBB3 were analysed for concentration-dependent binding at the cell surface via flow cytometry. HEK-293 cells were transiently transfected with either human or rhesus ERBB3 full-length cDNAs. Anti-ERBB3 IgGs and an isotype control were then all tested in IgG1null format, over a concentration range of 500-0.008 nM for binding to human (FIG. 5A) and rhesus (FIG. 5B) transfected cells.
Background: A flow cytometer gives signals particle by particle.

Test [4] deals with T4, human ERBB3 on transiently transfected HEK-293 cells (human, UniProt P21860 20-1342).
T4 construct: also called human ERBB3+ HEK-293 cells
Put plainly: flow cytometry, human ERBB3-transfected HEK-293. As to the method:
as §3, §4

B1: 15E02 IgG1null (antibody, V domains shown)
VH: QVQLVESGGGLVKPGGSLRLSCAASGFTFSDYGMSWIRQAPGKGLEWVSTISDSGTTIYYADNVKGRFTISRDNAKNSLYLQMNSLRAEDTAVYYCAREYGDYDGFDYWGQGTLVTVSS
VL: DIQMTQSPSSLSASVGDRVTITCRASQSISSYLSWYQQKPGKAPKLLIYAASSLQSGVPSRFSGSGSGTDFTLTISSLQPEDFATYYCLQYDSTPLTFGGGTKVEIK
notes: Human IgG1null and human Ckappa
Consider B1, for which, in test [1], binding was put at a Kd of 0.61 nM, the koff stood at 0.0039 s⁻¹ and the kon was 6.3e+06 M⁻¹ s⁻¹. In addition, in test [2], the Kd amounted to 2.5 nM, the koff came to 0.0095 s⁻¹ and the kon was 3.7e+06 M⁻¹ s⁻¹. In addition, the “maximum MFI, fold over isotype control background” value (shortened to “maximum MFI, fold”) in test [3] is > 20 fold. The “maximum MFI, fold” value in test [4] is > 20 fold.

B2: 16B09 IgG1null (antibody, V domains shown)
VH: QVQLVESGGGLVKPGGSLRLSCAASGFTFSDYSMSWIRQAPGKGLEWVSTISDSGTYTYYPDSVKGRFTISRDNAKNSLYLQMNSLRAEDTAVYYCAREWGDYDGFDFWGQGTLVTVSS
VL: DIQMTQSPSSLSASVGDRVTITCRASQEISSYLSWYQQKPGKAPKLLIYAASTLQSGVPSRFSGSGSGTDFTLTISSLQPEDFATYYCLQYDSTPLTFGGGTKVEIK
notes: Human IgG1null (L234A, L235A, G237A) and human Ckappa
In test [1], B2 came in with a Kd of 0.089 nM, a koff of 0.0014 s⁻¹ and a kon of 1.6e+07 M⁻¹ s⁻¹. Also, in test [2], the Kd was 0.21 nM, the koff amounted to 0.0027 s⁻¹ and the kon is 1.3e+07 M⁻¹ s⁻¹. Further, in test [3], the “maximum MFI, fold” value is > 20 fold. Moreover, the “maximum MFI, fold” value in test [4] is > 20 fold.

B3: MH1 IgG1null (antibody, V domains shown)
VH: QVQLVESGGGLVKPGGSLRLSCAASGFTFSDYGMSWIRQAPGKGLEWVSTISDSGSYIYYADSVKGRFTISRDNAKNSLYLQMNSLRAEDTAVYYCARELGDYDGFDYWGQGTLVTVSS
VL: DIQMTQSPSSLSASVGDRVTITCRASQSISSYLSWYQQKPGKAPKLLIYAASSLQSGVPSRFSGSGSGTDFTLTISSLQPEDFATYYCLQYDSTPLTFGGGTKVEIK
notes: Designer (Maximally Humanized) clone; Human IgG1null and human Ckappa
In test [1], B3 gave a Kd of 0.51 nM, a koff of 0.0035 s⁻¹ and a kon of 6.8e+06 M⁻¹ s⁻¹. In test [2], the Kd is 0.45 nM, the koff amounted to 0.0056 s⁻¹ and the kon is 1.3e+07 M⁻¹ s⁻¹. The “maximum MFI, fold” value in test [3] was > 20 fold. Besides, in test [4], the “maximum MFI, fold” value was > 20 fold.

B4: 17H10 IgG1null (antibody, V domains shown)
VH: QVQLVESGGGLVKPGGSLRLSCAASGFTFSDYGMSWIRQAPGKGLEWVSTISDGGSYTYYADSVKGRFTISRDNAKNSLYLQMNSLRAEDTAVYYCAREWGDYDGFDEWGQGTLVTVSS
VL: DIQMTQSPSSLSASVGDRVTITCRASQSISGYLSWYQQKPGKAPKLLIYAASTLQSGVPSRFSGSGSGTDFTLTISSLQPEDFATYYCLQYDSTPYTFGGGTKVEIK
notes: as for B1
As for B4, the Kd in test [1] was 0.19 nM; in test [2], 0.65 nM. The koff in test [1] was 0.0017 s⁻¹; in test [2], 0.0018 s⁻¹. For the same molecule, the kon in test [1] came out at 9.3e+06 M⁻¹ s⁻¹; in test [2], 2.7e+06 M⁻¹ s⁻¹. Further, the “maximum MFI, fold” value in test [3] and in test [4] was > 20 fold in each case.

B5: MH4 IgG1null (antibody, V domains shown)
VH: QVQLVESGGGLVKPGGSLRLSCAASGFTFSDYGMSWIRQAPGKGLEWVSTISDSGSYIYYADSVKGRFTISRDNAKNSLYLQMNSLRAEDTAVYYCAREWGDYDGFDEWGQGTLVTVSS
VL: DIQMTQSPSSLSASVGDRVTITCRASQSISSYLSWYQQKPGKAPKLLIYAASSLQSGVPSRFSGSGSGTDFTLTISSLQPEDFATYYCLQYDSTPLTFGGGTKVEIK
notes: as for B3
As for B5, in test [1], the Kd was determined as 0.26 nM, the koff worked out at 0.0029 s⁻¹ and the kon is 1.1e+07 M⁻¹ s⁻¹. In test [2], this molecule showed a Kd of 0.21 nM, an off-rate constant (koff) of 0.0047 s⁻¹ and a kon of 2.2e+07 M⁻¹ s⁻¹. Moreover, in test [3], the “maximum MFI, fold” value was > 20 fold. In addition, the “maximum MFI, fold” value in test [4] is > 20 fold.

B6: MH5 IgG1null (antibody, V domains shown)
VH: QVQLVESGGGLVKPGGSLRLSCAASGFTFSDYGMSWIRQAPGKGLEWVSTISDSGSTIYYADSVKGRFTISRDNAKNSLYLQMNSLRAEDTAVYYCAREYGDYDGFDYWGQGTLVTVSS
VL: DIQMTQSPSSLSASVGDRVTITCRASQSISSYLSWYQQKPGKAPKLLIYAASSLQSGVPSRFSGSGSGTDFTLTISSLQPEDFATYYCLQYDSTPLTFGGGTKVEIK
notes: as for B3
In test [1], B6 displayed a Kd of 0.71 nM, a koff of 0.0041 s⁻¹ and a kon of 5.8e+06 M⁻¹ s⁻¹. In test [2], binding was characterised by a dissociation constant (Kd) of 0.51 nM, the koff worked out at 0.006 s⁻¹ and the kon is 1.2e+07 M⁻¹ s⁻¹. In addition, the “maximum MFI, fold” value in test [3] is > 20 fold. Moreover, the “maximum MFI, fold” value in test [4] is > 20 fold.
